Measurements published in the supplement of paper PMC10126150.
± gives the standard deviation of the averaged measurements.

System: ATP
Experiment: switch fluorescence ratio, 500 uM ATP over buffer (Cy3 cluster intensity, sum of 5 cycles each) (fold (ratio)); higher = stronger signal-on switching upon ATP binding; sequences stand for … in TCGTCGGCAGCGTCAGATGTGTATAAGAGACAGTTTTTTTTTTTTTTTTTTTTTTTTT…TC
Settings: aptamer strand: ATP DNA aptamer (quencher-CACCTGGGGGAGTATTGCGGAGGAAGG + anchor), 100 nM annealed; ATP concentration: 500 uM
Procedure, shortened: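 Between each of five buffer/ATP cycles, the flow-cell was stripped with NaOH and re-annealed. Each cycle imaged Cy3-labelled switching-strand clusters, annealed to 100 nM quencher-labelled ATP aptamer on a modified Illumina MiSeq flow-cell, first in selection buffer and then after 15 min with 500 uM ATP at 22 °C. The fluorescence ratio is summed target-cycle over summed buffer-cycle Cy3 intensity per cluster, averaged per switch-domain sequence, with clusters outside 100-1000 RFU excluded.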
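Note: ATP exposure 15 min at 22 °C before imaging.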

Row | Sequence | switch fluorescence ratio
1 | GGGATCGCTA | 1 ± 0.018
2 | GGGATCTGGT | 1.002 ± 0.0098
3 | GGGATGATAG | 0.959 ± 0.032
4 | GGGATGCCAA | 0.9794 ± 0.0018
5 | GGGATGCCCT | 1.01 ± 0.027
6 | GGGATGGATA | 1.03 ± 0.085
7 | GGGATGTTAA | 0.976 ± 0.038
8 | GGGATGTTAT | 1.03 ± 0.014
9 | GGGATTGAAT | 1.01 ± 0.032
10 | GGGATTGAGC | 1.03 ± 0.041
11 | GGGATTGAGG | 1.01 ± 0.032
12 | GGGATTGTTG | 0.995 ± 0.041
13 | GGGATTTGAT | 0.98 ± 0.028
14 | GGGATTTTTA | 0.987 ± 0.018
15 | GGGCAAGGAT | 1.015 ± 0.0028
16 | GGGCAAGGCG | 1.006 ± 0.0092
17 | GGGCAAGGTT | 0.9682 ± 0.0065
18 | GGGCAATCGT | 1.021 ± 0.0063
19 | GGGCAATGAG | 1.09 ± 0.023
20 | GGGCACGTGG | 0.995 ± 0.035
21 | GGGCAGAAAG | 1.01 ± 0.075
22 | GGGCAGAGGC | 1.06 ± 0.029
23 | GGGCAGGCTG | 1 ± 0.023
24 | GGGCAGGTTC | 1.08 ± 0.085
25 | GGGCAGTTTT | 0.991 ± 0.023

Row | Sequence | switch fluorescence ratio
26 | GGGCATAGAT | 1.03 ± 0.05
27 | GGGCATAGGA | 1.03 ± 0.097
28 | GGGCATATGG | 1.05 ± 0.015
29 | GGGCATCGGG | 0.991 ± 0.013
30 | GGGCATGAAT | 0.965 ± 0.016
31 | GGGCATGCAG | 0.966 ± 0.018
32 | GGGCATGCGT | 0.973 ± 0.042
33 | GGGCATGTTA | 0.9692 ± 0.0032
34 | GGGCATTGAA | 0.9895 ± 0.0022
35 | GGGCATTGCG | 0.9667 ± 0.0091
36 | GGGCATTGTT | 1.02 ± 0.043
37 | GGGCCAGGGC | 1.02 ± 0.02
38 | GGGCCAGTGC | 1.03 ± 0.043
39 | GGGCCAGTTG | 1.0149 ± 0.00024
40 | GGGCCCGGGT | 0.994 ± 0.037
41 | GGGCCCTGGG | 0.994 ± 0.059
42 | GGGCCCTTTT | 0.976 ± 0.019
43 | GGGCCGGTTT | 1 ± 0.026
44 | GGGCCTGGTA | 0.973 ± 0.03
45 | GGGCCTTGAG | 1.031 ± 0.008
46 | GGGCCTTTAT | 1.017 ± 0.0089
47 | GGGCGATGGG | 1.02 ± 0.084
48 | GGGCGCCCCA | 0.976 ± 0.013
49 | GGGCGCCCCC | 1.08 ± 0.14
50 | GGGCGCGTAT | 1.03 ± 0.045

Row | Sequence | switch fluorescence ratio
51 | GGGCGGGCTG | 1.006 ± 0.0084
52 | GGGCGGGTCT | 1.01 ± 0.046
53 | GGGCGGGTTG | 1 ± 0.0036
54 | GGGCGGTCTT | 1.06 ± 0.097
55 | GGGCGGTTTT | 0.993 ± 0.043
56 | GGGCGTAAGG | 1.01 ± 0.047
57 | GGGCGTGGTT | 0.965 ± 0.017
58 | GGGCGTGTTT | 1 ± 0.031
59 | GGGCGTTCTG | 1.04 ± 0.023
60 | GGGCGTTTCA | 1.02 ± 0.02
61 | GGGCTAAAGA | 1.01 ± 0.013
62 | GGGCTAAGAG | 1.05 ± 0.038
63 | GGGCTAAGGC | 0.9923 ± 0.0037
64 | GGGCTAGGCT | 0.9684 ± 0.006
65 | GGGCTAGGGA | 0.972 ± 0.041
66 | GGGCTAGTGG | 1.02 ± 0.036
67 | GGGCTAGTTC | 1.05 ± 0.077
68 | GGGCTCCATG | 0.9825 ± 0.0044
69 | GGGCTGGATG | 0.9932 ± 0.0047
70 | GGGCTGGGTA | 0.993 ± 0.018
71 | GGGCTGGTTT | 0.981 ± 0.02
72 | GGGCTTAAGG | 0.97 ± 0.015
73 | GGGCTTGGAG | 1.012 ± 0.00086
74 | GGGCTTGGCT | 0.9851 ± 0.0065
75 | GGGGAAAAGG | 1 ± 0.017

Row | Sequence | switch fluorescence ratio
76 | GGGGAAAATA | 1.007 ± 0.0048
77 | GGGGAAACAA | 0.99 ± 0.024
78 | GGGGAAACAT | 1.08 ± 0.013
79 | GGGGAAACGG | 1.06 ± 0.085
80 | GGGGAAGAGG | 0.983 ± 0.011
81 | GGGGAAGCCG | 1.01 ± 0.027
82 | GGGGAAGGTA | 0.978 ± 0.019
83 | GGGGAATAAG | 1.01 ± 0.053
84 | GGGGAATGCA | 1.01 ± 0.034
85 | GGGGAATGCG | 1.01 ± 0.0065
86 | GGGGAATTAT | 1.03 ± 0.0058
87 | GGGGACAAGT | 1.0212 ± 0.00058
88 | GGGGACATAA | 0.997 ± 0.011
89 | GGGGACATGG | 1.07 ± 0.11
90 | GGGGACCGCG | 0.969 ± 0.016
91 | GGGGACCTAC | 1.08 ± 0.022
92 | GGGGACGAGG | 0.999 ± 0.028
93 | GGGGACGCTG | 0.98 ± 0.012
94 | GGGGACGGAT | 1.04 ± 0.052
95 | GGGGACTGTA | 1.04 ± 0.061
96 | GGGGAGATGT | 1.01 ± 0.014
97 | GGGGAGGGGG | 0.999 ± 0.044
98 | GGGGAGGTAG | 0.985 ± 0.014
99 | GGGGAGTAGG | 1.03 ± 0.049
100 | GGGGAGTAGT | 1.01 ± 0.024
